Test results: US7615610B2, “Modified trafficking patterns for arrestin and G-protein-coupled receptors via arrestin-ubiquitin chimera” (Duke University, priority 2003, dated 2009)

How the values were obtained:
β2AR [1] = target: T1, β2AR (Homo sapiens, UniProt P07550); experiment: Receptor internalization (loss of cell surface receptors, flow cytometry), β2AR
V2Rβ2CT = target: T2, V2Rβ2CT (Homo sapiens, UniProt P07550+P30518); experiment: Confocal microscopy of arrestin trafficking with V2Rβ2CT in HEK-293 cells; format: cell-based; conditions: live HEK-293 cells expressing V2Rβ2CT, 15 min and longer
T2 construct: the first 342 amino acids of the V2R (Met1-Cys342); the last 72 amino acids of the β2AR (Leu342 to Leu 413); expressed in transfected cells; host or cells: HEK-293
Experimental: Twenty-four hours post-transfection cells were plated on collagen-coated 35 mm glass bottom plates. Cells were starved for at least 2 hrs in serum free medium prior to stimulation. After stimulation cells were fixed with 4% paraformaldehyde. For visualizing HA-tagged receptors, fixed cells were permeabilized with 0.01% Triton in PBS containing 2% BSA for 20 min and incubated at room temperature with 12CA5 antibody at 1:500 dilution. The secondary antibody, antimouse IgG conjugated to TexasRed, followed this. Antibody incubations were done for one hour followed by repeated washes using PBS. Cells expressing low and equivalent levels of the fluorescent proteins were carefully selected to examine YFP-β-arrestins. […] Live images were acquired using a heated (37° C.) microscope stage and collected sequentially using single line excitation (488 nm).

β2AR [2] = target: T1, β2AR; experiment: Confocal microscopy of arrestin trafficking with β2AR in HEK-293 cells; format: cell-based; design: expressed in transfected cells; host or cells: HEK-293; conditions: for colocalization with internalized β2AR in endocytic vesicles: fixed HEK-293 cells, HA-β2AR, 15 min isoproterenol; for distribution of YFP fluorescence after isoproterenol: live HEK293 cells over expressing β2AR, 10 μM isoproterenol, 15-30 min
Experimental: Cells were starved for one hour in serum free media. […] Shown are representative confocal images of YFP-fluorescence followed in the same HEK-293 cells treated for 2, 15 and 30 min at 37° C.
HEK-293 cells were transiently transfected with HA-β2AR and YFP-βarrestin2 (A) or YFP-β-arrestin2-Ub (B). After isoproterenol treatment or not the cells were fixed, permeabilized and stained for receptor with the primary antibody 12CA5 and secondary antibody anti mouse IgG conjugated to Texas Red. Shown are confocal images where receptor is visualized in the Red channels and β-arrestin in the green channels. Colocalization of two proteins is seen as yellow in the overlay. The results are representative of three independent experiments.
HEK-293 cells on 10 cm dishes were transiently transfected with HA-β2AR, HA-V2R, HAβ2ARV2CT, or HAV2Rβ2CT, along with β-arr2-GFP, or YFP-βarrestin2, or YFP-β-arrestin2-Ub. Twenty-four hours post-transfection cells were plated on collagen-coated 35 mm glass bottom plates. Cells were starved for at least 2 hrs in serum free medium prior to stimulation. After stimulation cells were fixed with 4% paraformaldehyde. For visualizing HA-tagged receptors, fixed cells were permeabilized with 0.01% Triton in PBS containing 2% BSA for 20 min and incubated at room temperature with 12CA5 antibody at 1:500 dilution. The secondary antibody, antimouse IgG conjugated to TexasRed, followed this. Antibody incubations were done for one hour followed by repeated washes using PBS. Cells expressing low and equivalent levels of the fluorescent proteins were carefully selected to examine YFP-β-arrestins. Confocal images were obtained on Zeiss LSM510 laser scanning microscope using dual excitation (488, 568 nm) and emission (515-540 nm GFP, YFP; 590-610 nm, Texas red) filter sets. Live images were acquired using a heated (37° C.) microscope stage and collected sequentially using single line excitation (488 nm).

β2AR [3] = target: T1, β2AR; experiment: Coimmunoprecipitation of YFP-β-arrestins with Flag-β2AR in COS-7 cells; format: binding; design: expressed in transfected cells; conditions: Flag-β2AR IP, 15 minutes of agonist treatment
Description: A) Stability of the ubiquitin chimera in COS-7 cells. […] The bands on the autorad were quantitated using Fluorimager and graphically represented in the figure. The zero time point represents 100% protein. The graph is an average of three independent experiments. B) Interaction of β-arrestin2-Ub chimera with β2AR. […] After stimulation or not the receptor was immunoprecipitated with anti-Flag beads in the absence (left panels) or presence (right panels) of the inhibitor NEM; the IP was blotted for YFP-β-arrestins with a monoclonal antibody to GFP (top panel). […] The blots are representative of similar blots from three independent experiments.
Immunoprecipitation and Irnmunoblofting—To detect ubiquitinated β-arrestin2, β-arrestin2 with a C-terminal Flag epitope was transiently transfected into COS-7 cells. Cells were serum starved for at least 2 hrs and then stimulated or not for the stipulated times with the appropriate agonists. Cells were solubilized in a lysis buffer (LB) containing 50 mM Hepes (pH7.5), 0.5% NP40, 250 mM NaCl, 2 mM EDTA, 10% (vlv) glycerol, 1 mM sodium orthovanadate, 1 mM sodium fluoride, 1 mM phenylmethylsulfonyl fluoride, leupeptin (5 μg/ml) aprotinin (5 μg/ml), pepstatin A (1 μg/ml) benzaminidine (100 μM) 2 μM MG132 and 10 mM NEM. Soluble extracts were mixed with FLAG M2 affinity beads and rotated at 4° C. overnight. […]

β2AR [4] = target: T1, β2AR

`CN(C)c1cccc2c(S(=O)(=O)NCCCCCN)cccc12` [MDC, monodansylcadaverine] gave a reduction of internalization (β2AR [1]; pretreatment of cells with 200 μM MDC, data not shown) of 45%.

“YFP-β-arrestin2-Ub: YFP-labelled β-arrestin2-ubiquitin chimera from pEYFPC1 (SEQ ID NOS:1-2)” was tested, and the “distribution of YFP fluorescence after AVP” value (V2Rβ2CT) was “moved into endocytic vesicles as early as 15 min”, the “colocalization with internalized β2AR in endocytic vesicles” value (β2AR [2]) was “colocalize with the internalized β2AR” and the “distribution of YFP fluorescence after isoproterenol” value (β2AR [2]) was “redistribute from the plasma membrane to endocytic vesicles”. The “receptor-bound (coimmunoprecipitated) arrestin bands” value (β2AR [3]) was “detectable with the chimeric protein”.

With “YFP-β-arrestin2: wild type β-arrestin2 tagged with YFP, comparator” the “colocalization with internalized β2AR in endocytic vesicles” value (β2AR [2]) was “did not however contain any YFP-β-arrestin2”, the “distribution of YFP fluorescence after isoproterenol” value (β2AR [2]) was “unaltered at 30 min of isoproterenol treatment” and the “receptor-bound (coimmunoprecipitated) arrestin bands” value (β2AR [3]) was “not detectable”.

In the case of “β-arrestin2: wild type β-arrestin2 overexpressed as comparator”, the “increase in amount of β2AR degradation” value (β2AR [4]) is reported as 6-7% and the β2AR internalization (β2AR [1]; HEK293 cells, arrestin overexpressed with Flag-β2AR, 10 μM isoproterenol 30 min, mean±SEM) is reported as 33±1.6%.
